Data on one protein can be found in publication PMC8058561, “Activity-dependent conformational transitions of the insulin receptor–related receptor” (The Journal of Biological Chemistry, 2021).

The data set deals with the molecule itself. Put plainly: atomic force microscopy; purified full-length IRR in DDM micelles deposited on mica; tapping mode in 150 mM NaCl, 20 mM sodium phosphate, 5% glycerol, pH 7.0 or pH 9.0; single receptor-micelle complexes sorted by the shape of the ectodomain.

B1: insulin receptor-related receptor (full-length human IRR with a C-terminal 6xHIS tag) (receptor)
chain 1: VEVCPSLDIRSEVAELRQLENCSVVEGHLQILLMFTATGEDFRGLSFPRLTQVTDYLLLFRVYGLESLRDLFPNLAVIRGTRLFLGYALVIFEMPHLRDVALPALGAVLRGAVRVEKNQELCHLSTIDWGLLQPAPGANHIVGNKLGEECADVCPGVLGAAGEPCAKTTFSGHTDYRCWTSSHCQRVCPCPHGMACTARGECCHTECLGGCSQPEDPRACVACRHLYFQGACLWACPPGTYQYESWRCVTAERCASLHSVPGRASTFGIHQGSCLAQCPSGFTRNSSSIFCHKCEGLCPKECKVGTKTIDSIQAAQDLVGCTHVEGSLILNLRQGYNLEPQLQHSLGLVETITGFLKIKHSFALVSLGFFKNLKLIRGDAMVDGNYTLYVLDNQNLQQLGSWVAAGLTIPVGKIYFAFNPRLCLEHIYRLEEVTGTRGRQNKAEINPRTNGDRAACQTRTLRFVSNVTEADRILLRWERYEPLEARDLLSFIVYYKESPFQNATEHVGPDACGTQSWNLLDVELPLSRTQEPGVTLASLKPWTQYAVFVRAITLTTEEDSPHQGAQSPIVYLRTLPAAPTVPQDVISTSNSSSHLLVRWKPPTQRNGNLTYYLVLWQRLAEDGDLYLNDYCHRGLRLPTSNNDPRFDGEDGDPEAEMESDCCPCQHPPPGQVLPPLEAQEASFQKKFENFLHNAITIPISPWKVTSINKSPQRDSG
chain 2: not shown
notes: alpha subunit (about 100 kDa) of human insulin receptor-related receptor, cut from the single-chain precursor (about 170 kDa); beta subunit (about 70 kDa) of human insulin receptor-related receptor, cut from the single-chain precursor (about 170 kDa); holds the transmembrane segment and the tyrosine kinase domain; Some uncleaved proreceptor (170 kDa) was also seen on the blot; The receptor was …
On to B1, for which the binding result is given as “binds”.
